Values belong to the molecule of their own block, whether it stands above or below them. Square brackets hold non-standard residues; d marks the D form. Ends that are not written are not given here. pY = N[C@@H](Cc1ccc(OP(=O)(O)O)cc1)C(=O)O
Tests used:
[1] = target: T1, t-SHP-2 (SHP-2 tandem SH2 domains, amino acids 1-225) (Homo sapiens, UniProt Q06124); assay: Isothermal titration calorimetry of PD-1 phosphopeptides with t-SHP-2; format: binding; settings: for Kd: ITC, MicroCal ITC200, peptide 50-100 µM titrated into t-SHP-2 3-5 µM, 19 injections, 20 °C, 50 mM HEPES pH 7.4, 100 mM NaCl, 5 mM TCEP
T1 construct: made in house
T1 sequence (Q06124 1-225): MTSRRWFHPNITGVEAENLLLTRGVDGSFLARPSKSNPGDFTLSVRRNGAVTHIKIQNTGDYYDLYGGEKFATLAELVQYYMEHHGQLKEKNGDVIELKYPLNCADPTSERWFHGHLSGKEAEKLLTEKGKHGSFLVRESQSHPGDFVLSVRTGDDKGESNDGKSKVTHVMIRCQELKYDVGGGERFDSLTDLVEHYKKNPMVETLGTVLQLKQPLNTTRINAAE
Procedure: Isothermal titration calorimetry (ITC) was performed on a MicroCal ITC200 instrument (Malvern, Worcestershire, UK), using established methodology. Briefly, PD-1 phosphopeptides (PD-1cyto-pITIM-pITSM, PD-1cyto-ITIM-pITSM and PD-1cyto-pITIM-ITSM) and SHP-2 tandem-SH2 protein (t-SHP-2) were prepared in buffer containing 50 mM HEPES pH 7.4, 100 mM NaCl, 5 mM TCEP. Each peptide (50–100 µM) was titrated into a t-SHP-2 sample (3–5 µM) in a total of 19 injections at 20^ oC. We used reference power 6.0, initial delay 60 s and stirring speed 750 rpm. Injection volume was 0.4 µl for first injection and 2 µl for subsequent injections, injection duration was 0.8 s for first injection and 4 s for subsequent injections, with 150 s spacing and 5 s filter period. Reference cell was filled with sterile Milli-Q water. Controls of peptide titrations into buffer were run for baseline corrections. Data analysis was done using Origin 7.0 software.

[2] = system: PD-1-SmBiT: PD-1-LgBiT complex (PD-1: PD-1 interaction) in HEK-293 cells; assay: NanoBiT assay for PD-1 dimerization in HEK-293 cells; format: cell-based, human; settings: HEK-293 transfected with PD-1-SmBiT, active Fyn and SHP-2, increasing amounts, Fig. 4e
[3] = target: SHP-2 wild-type full-length, purified recombinant protein (UniProt Q06124)
[4] = target: t-SHP-2 (SHP-2 amino acids 1-225, tandem N-SH2 and C-SH2 domains) (UniProt Q06124); assay: ITC; MicroCal ITC200; peptide (50-100 uM) titrated into t-SHP-2 (3-5 uM), 19 injections, 20 C; 50 mM HEPES pH 7.4, 100 mM NaCl, 5 mM TCEP
SHP-2-WT = assay: SHP-2 phosphatase activity, DiFMUP substrate; format: biochemical
SHP-2-full-length = target: T2, SHP-2-full-length (Homo sapiens, UniProt Q06124); assay: SPR: SHP-2-full-length binding to immobilized PD-1 phosphopeptides; settings: identical conditions as for ITSM-pY248 surface
T2 construct: glutathione-S-transferase (GST) fusions to SHP-2 wild-type full-length (SHP-2-WT-FL) using the pGEX 4T-3 vector; GST (N, cleaved yes); made in house; host or cells: E. coli BL21(D3)LysS
T2 sequence (Q06124 1-593): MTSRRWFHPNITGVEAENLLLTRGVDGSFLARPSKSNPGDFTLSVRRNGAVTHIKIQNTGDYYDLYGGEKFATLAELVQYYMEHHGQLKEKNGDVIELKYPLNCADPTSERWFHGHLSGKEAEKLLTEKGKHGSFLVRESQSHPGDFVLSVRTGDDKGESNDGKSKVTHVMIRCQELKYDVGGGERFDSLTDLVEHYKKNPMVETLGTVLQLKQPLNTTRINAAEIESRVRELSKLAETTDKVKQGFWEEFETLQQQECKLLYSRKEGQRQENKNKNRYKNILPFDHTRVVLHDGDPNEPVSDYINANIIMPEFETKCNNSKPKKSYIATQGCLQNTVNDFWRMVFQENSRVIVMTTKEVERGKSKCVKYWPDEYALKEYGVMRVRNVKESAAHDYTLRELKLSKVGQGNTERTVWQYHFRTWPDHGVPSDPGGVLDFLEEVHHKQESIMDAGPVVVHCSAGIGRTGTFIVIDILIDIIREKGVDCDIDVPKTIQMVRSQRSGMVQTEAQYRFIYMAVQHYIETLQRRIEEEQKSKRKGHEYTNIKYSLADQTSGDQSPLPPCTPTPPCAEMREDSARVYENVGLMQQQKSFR

SHP-2 [5] = target: SHP-2 (UniProt Q06124); assay: PD-1 IP, FLAG (SHP-2) blot; settings: reference: PD-1 wild type; sites Y248
SHP-2 [6] = target: SHP-2 (UniProt Q06124); assay: PD-1 IP, SHP-2 blot; settings: reference: PD-1 wild type; sites Y248
PD1LgDM = assay: NanoBiT proximity assay (split luciferase) in HEK-293 cells; settings: PD1SmDM + PD1LgDM + SHP2WT, read off a plot
PD1LgY223F = assay: as above; settings: PD1SmY223F + PD1LgY223F + SHP2WT, Fyn (-) kinase inactive; parent: est. 100; read off a plot
PD1LgY248F = assay: as above; settings: PD1SmY248F + PD1LgY248F + SHP2WT, Fyn (-) kinase inactive; parent: est. 100; read off a plot
SHP-2 1-225 [7] = target: SHP-2 1-225 (UniProt Q06124); assay: native PAGE mobility shift; settings: reference: PD-1cyto-pITIM-pITSM (pY223 + pY248)
SHP-2 1-225 [8] = target: SHP-2 1-225 (UniProt Q06124); assay: ITC; settings: reference: PD-1cyto-pITIM-pITSM (pY223 + pY248); sites Y248

Molecule: CC[C@H](C)[C@H](NC(=O)[C@@H](NC(=O)[C@H](C)NC(=O)[C@H](Cc1ccc(OP(=O)(O)O)cc1)NC(=O)[C@H](CCC(=O)O)NC(=O)[C@@H](NC(=O)[C@H](CCC(N)=O)NC(=O)[C@H](CCC(=O)O)NC(=O)[C@@H]1CCCN1C(=O)[C@@H](NC(=O)[C@H](CS)NC(=O)[C@@H]1CCCN1C(=O)[C@@H](NC(=O)[C@@H]1CCCN1C(=O)[C@@H]1CCCN1C(=O)[C@H](CCC(=O)O)NC(=O)[C@@H]1CCCN1C(=O)[C@@H](NC(=O)[C@H](CCCCN)NC(=O)[C@H](CCC(=O)O)NC(=O)[C@H](CCCNC(=N)N)NC(=O)[C@H](Cc1c[nH]c2ccccc12)NC(=O)[C@H](CCC(N)=O)NC(=O)[C@H](Cc1ccccc1)NC(=O)[C@H](CC(=O)O)NC(=O)[C@H](CC(C)C)NC(=O)[C@H](CCC(=O)O)NC(=O)CNC(=O)[C@H](Cc1ccc(O)cc1)NC(=O)[C@H](CC(=O)O)NC(=O)[C@@H](NC(=O)[C@H](CO)NC(=O)[C@H](Cc1ccccc1)NC(=O)[C@@H](NC(=O)[C@@H]1CCCN1C(=O)[C@@H](NC(=O)[C@H](C)NC(=O)[C@@H](N)CO)C(C)C)C(C)C)C(C)C)[C@@H](C)O)C(C)C)C(C)C)[C@@H](C)O)[C@@H](C)O)C(=O)N[C@H](C(=O)N[C@@H](Cc1ccccc1)C(=O)N1CCC[C@H]1C(=O)N[C@@H](CO)C(=O)O)C(C)C [PD-1cyto-ITIM-pITSM]
Kd [1]: 775 nM

Molecule: CC[C@H](C)[C@H](NC(=O)[C@@H](NC(=O)[C@H](C)NC(=O)[C@H](Cc1ccc(OP(=O)(O)O)cc1)NC(=O)[C@H](CCC(=O)O)NC(=O)[C@@H](NC(=O)[C@H](CCC(N)=O)NC(=O)[C@H](CCC(=O)O)NC(=O)[C@@H]1CCCN1C(=O)[C@@H](NC(=O)[C@H](CS)NC(=O)[C@@H]1CCCN1C(=O)[C@@H](NC(=O)[C@@H]1CCCN1C(=O)[C@@H]1CCCN1C(=O)[C@H](CCC(=O)O)NC(=O)[C@@H]1CCCN1C(=O)[C@@H](NC(=O)[C@H](CCCCN)NC(=O)[C@H](CCC(=O)O)NC(=O)[C@H](CCCNC(=N)N)NC(=O)[C@H](Cc1c[nH]c2ccccc12)NC(=O)[C@H](CCC(N)=O)NC(=O)[C@H](Cc1ccccc1)NC(=O)[C@H](CC(=O)O)NC(=O)[C@H](CC(C)C)NC(=O)[C@H](CCC(=O)O)NC(=O)CNC(=O)[C@H](Cc1ccc(OP(=O)(O)O)cc1)NC(=O)[C@H](CC(=O)O)NC(=O)[C@@H](NC(=O)[C@H](CO)NC(=O)[C@H](Cc1ccccc1)NC(=O)[C@@H](NC(=O)[C@@H]1CCCN1C(=O)[C@@H](NC(=O)[C@H](C)NC(=O)[C@@H](N)CO)C(C)C)C(C)C)C(C)C)[C@@H](C)O)C(C)C)C(C)C)[C@@H](C)O)[C@@H](C)O)C(=O)N[C@H](C(=O)N[C@@H](Cc1ccccc1)C(=O)N1CCC[C@H]1C(=O)N[C@@H](CO)C(=O)O)C(C)C [PD-1cyto-pITIM-pITSM]
Kd [1]: 15.9 nM

Molecule: CC1(N)CCN(c2cnc(-c3cccc(Cl)c3Cl)c(N)n2)CC1 [SHP099]
effect on PD-1: PD-1 interaction [2]: dose-dependent inhibition of PD-1: PD-1 interaction

Molecule: Bisphosphoryl peptide of native sequence of PD-1 cytoplasmic tail (PD-1cyto-pITIM-pITSM)
stoichiometry N (peptide per t-SHP-2) [4]: 1

Molecule: KEDPSAVPVFSVD[pY]GELDFQWRE [pITIM, monophosphorylated human PD-1 ITIM-pY223 phosphopeptide]
increase in the catalytic activity of SHP-2 compared to negative control pIRSY727 (SHP-2-WT; DiFMUP substrate, Fig. 5a): did not induce an increase
effect on SHP-2 activation induced by bpITSM (competition) (SHP-2-WT; bpITSM 0.01 µM with increasing amounts of monophosphorylated peptide, Fig. 5d): only when added at very high molar concentrations (1000x excess of bpITSM)
specific interaction of SHP-2 protein with peptide-coated surface (SHP-2-full-length): no specific interaction

Molecule: Monophosphoryl peptide of native sequence of PD-1 cytoplasmic tail (PD-1cyto-ITIM-pITSM)
stoichiometry N (peptide per t-SHP-2) [4]: 2

Molecule: PD-1 NanoBiT fusions (PD-1-LgBiT and PD-1-SmBiT) in HEK-293 cells with kinase-inactive Fyn (from UniProt Q15116) DM
response (PD1LgDM; Fyn (-) kinase inactive, parent: est. 100): 88 RLU

Molecule: PD-1 NanoBiT fusions (PD-1-LgBiT and PD-1-SmBiT) in HEK-293 cells with kinase-inactive Fyn (from UniProt Q15116) Y223F
response (PD1LgY223F): 90 RLU

Molecule: PD-1 cytoplasmic tail peptide (from UniProt Q15116) PD-1cyto-ITIM-pITSM (pY248 only)
binding against the reference (SHP-2 1-225 [7]; sites Y223): same

Molecule: PD-1 cytoplasmic tail peptide (from UniProt Q15116) PD-1cyto-pITIM-ITSM (pY223 only)
KD (SHP-2 1-225 [8]): lost; reference 0.0159
binding against the reference (SHP-2 1-225 [7]; sites Y248): lost

Molecule: TE(pY)ATIVFP-Ahx10-QTE(pY)ATIVFPS [bpITSM-Ahx10, bisphosphoryl ITSM peptide with 10-Ahx spacer]
catalytic activity of SHP-2 compared to the negative control pIRSY727 (SHP-2-WT; 3x lower enzyme concentration (0.5 µg/ml SHP-2-WT), Fig. 5e): caused a higher increase in SHP-2 activation

Molecule: VD(pY)GELDFQ-Ahx4-SVD(pY)GELDFQW [bpITIM, bisphosphoryl ITIM-ITIM peptide with 4-Ahx spacer]
increase in the catalytic activity of SHP-2 compared to negative control pIRSY727 (SHP-2-WT; DiFMUP substrate, Fig. 5a): did not induce an increase

Further lines, results first:

potency in inducing SHP-2 phosphatase activity relative to the bisphosphoryl peptide bpIRS [3]: 3 fold
Molecule: Bisphosphoryl ITSM peptide pITSM-Ahx4-pITSM (bpITSM)

binding against the reference (SHP-2 [5]): lost
binding against the reference (SHP-2 [6]): lost
Molecule: PD-1 (from UniProt Q15116) PD-1 Y248F

response (PD1LgDM; Fyn (+) kinase active, parent: est. 255): 90 RLU
Molecule: PD-1 NanoBiT fusions (PD-1-LgBiT and PD-1-SmBiT) in HEK-293 cells with kinase-active Fyn (from UniProt Q15116) DM

response (PD1LgY248F): 80 RLU
Molecule: PD-1 NanoBiT fusions (PD-1-LgBiT and PD-1-SmBiT) in HEK-293 cells with kinase-inactive Fyn (from UniProt Q15116) Y248F

peptide: t-SHP-2 interaction by ITC ([1]; same conditions): not detectable
Molecule: SAVPVFSVD(pY)GELDFQWREKTPEPPVPCVPEQTEYATIVFPS (SAVPVFSVD[pY]GELDFQWREKTPEPPVPCVPEQTEYATIVFPS) [PD-1cyto-pITIM-ITSM]

peptide concentration at which catalytic activity of SHP-2 is increased (SHP-2-WT; DiFMUP substrate, compared to pIRSY727 and pIRSY1172, Fig. 5a): above 1 µM
Molecule: VD(pY)GELDFQ-Ahx4- QTE(pY)ATIVFPS [pITIM-pITSM, bisphosphoryl ITIM-ITSM peptide with 4-Ahx spacer]
